These results are taken from patent publication US20130266568A1 (Hoffmann-La Roche, published 2013).

B1: Her3/MetSS_KHSS_M1 (MMP 2 and 9 cleavage site - variant 1), not cleaved (bispecific antibody, human IgG1, kappa)
heavy 1: not shown
heavy 2: not shown
light: DIQMTQTTSSLSASLGDRVTISCRARQDISNYLNWYQRKPDGTVKLLIYYTSRLHSGVPSRFSGSGSGTDYSLTISNLEQEDIATYFCQQGNTFPWTFGGGTKLEIKRTVAAPSVFIFPPSDEQLKSGTASVVCLLNNFYPREAKVQWKVDNALQSGNSQESVTEQDSKDSTYSLSSTLTLSKADYEKHKVYACEVTHQGLSSPVTKSFNRGEC
notes: Trivalent anti-Her3 IgG with restricted anti-cMet dsFv
B2: Her3/MetSS_KHSS_M1 after protease cleavage (bispecific antibody)
heavy 1: not shown
heavy 2: not shown
chain: MLSQSGGGGSGGGGSDIQMTQSPSSLSASVGDRVTITCKSSQSLLYTSSQKNYLAWYQQKPGKAPKLLIYWASTRESGVPSRFSGSGSGTDFTLTISSLQPEDFATYYCQQYYAYPWTFGCGTKVEIKR
light: B1 light
notes: HC2 is cut in the connector; the VL fragment stays disulfide-linked to VH
B3: Her3/MetSS_KHSS_M3 (MMP 2 and 9 cleavage site - variant 3), not cleaved (bispecific antibody, human IgG1, kappa)
heavy 1: not shown
heavy 2: not shown
light: B1 light
notes: as for B1
B4: Her3/MetSS_KHSS_M2 (MMP 2 and 9 cleavage site - variant 2), not cleaved (bispecific antibody, human IgG1, kappa)
heavy 1: not shown
heavy 2: not shown
light: B1 light
notes: as for B1
B5: Her3/MetSS_KHSS_U (protease cleavage site = uPA cleavage site), not cleaved (bispecific antibody, human IgG1, kappa)
heavy 1: not shown
heavy 2: not shown
light: B1 light
notes: as for B1
B6: Her3/MetSS_KHSS_PreSci (protease cleavage site = prescission cleavage site), not cleaved (restricted form) (bispecific antibody, human IgG1, kappa)
heavy 1: not shown
heavy 2: not shown
light: B1 light
notes: Trivalent: whole anti-Her3 IgG (knobs-into-holes) with one disulfide-stabilized anti-cMet Fv tethered to both CH3 C-termini; Constructs were designed with a leader peptide
B7: Her3/MetSS_KHSS_M3 after protease cleavage (bispecific antibody)
heavy 1: not shown
heavy 2: not shown
chain: B2 chain with M1I, L2A, S3G
light: B1 light
notes: as for B2
B8: Her3/MetSS_KHSS_M2 after protease cleavage (MMP-2 processed) (bispecific antibody)
heavy 1: not shown
heavy 2: not shown
chain: B2 chain with M1L, L2W, S3A
light: B1 light
notes: as for B2

Substitutions are numbered along the chain they refer to. Where only a bound is given, the exact number is not on record here.

T2 sequence (P21860 20-1342 limits assumed, stated change not applied): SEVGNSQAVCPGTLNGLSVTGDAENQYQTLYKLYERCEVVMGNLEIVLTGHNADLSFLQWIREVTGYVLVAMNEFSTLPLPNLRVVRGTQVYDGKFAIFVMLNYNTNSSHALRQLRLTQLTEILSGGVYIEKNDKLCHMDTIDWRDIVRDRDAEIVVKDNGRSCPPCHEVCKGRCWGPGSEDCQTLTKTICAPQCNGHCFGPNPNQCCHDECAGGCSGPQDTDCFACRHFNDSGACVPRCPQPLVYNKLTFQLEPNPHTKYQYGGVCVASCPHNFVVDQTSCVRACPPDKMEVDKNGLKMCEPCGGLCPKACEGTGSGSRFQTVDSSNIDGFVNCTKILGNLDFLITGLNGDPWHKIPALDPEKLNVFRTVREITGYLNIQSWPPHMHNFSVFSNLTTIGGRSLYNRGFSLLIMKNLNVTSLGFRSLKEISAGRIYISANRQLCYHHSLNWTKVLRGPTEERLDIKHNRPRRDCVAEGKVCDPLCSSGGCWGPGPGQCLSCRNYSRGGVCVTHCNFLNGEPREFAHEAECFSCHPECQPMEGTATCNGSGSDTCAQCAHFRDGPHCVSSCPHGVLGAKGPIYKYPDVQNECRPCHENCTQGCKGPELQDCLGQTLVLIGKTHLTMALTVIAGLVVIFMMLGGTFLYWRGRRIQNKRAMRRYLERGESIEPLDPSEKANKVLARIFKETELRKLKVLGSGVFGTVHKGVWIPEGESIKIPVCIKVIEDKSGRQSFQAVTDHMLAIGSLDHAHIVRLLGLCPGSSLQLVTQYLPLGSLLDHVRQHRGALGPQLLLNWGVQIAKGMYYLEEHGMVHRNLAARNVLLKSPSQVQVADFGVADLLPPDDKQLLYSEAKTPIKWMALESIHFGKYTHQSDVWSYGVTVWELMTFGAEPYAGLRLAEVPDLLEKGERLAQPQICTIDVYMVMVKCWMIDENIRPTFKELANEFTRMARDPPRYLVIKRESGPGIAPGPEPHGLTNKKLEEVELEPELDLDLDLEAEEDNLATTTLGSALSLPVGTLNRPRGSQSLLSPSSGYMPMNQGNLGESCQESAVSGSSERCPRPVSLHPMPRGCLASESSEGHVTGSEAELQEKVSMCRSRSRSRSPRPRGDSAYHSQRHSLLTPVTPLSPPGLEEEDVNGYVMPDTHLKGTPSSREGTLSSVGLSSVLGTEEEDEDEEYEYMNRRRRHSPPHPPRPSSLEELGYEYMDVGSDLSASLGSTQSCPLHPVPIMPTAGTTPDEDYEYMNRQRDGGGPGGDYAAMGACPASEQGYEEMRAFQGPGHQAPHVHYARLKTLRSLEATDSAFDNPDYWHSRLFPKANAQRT

One assay deals with T1, cMet (antigen in the SPR measurements) (UniProt P08581 25-932, limits assumed). Put plainly: SPR; not cleaved; dsFv sterically restricted.
T1 sequence (P08581 25-932 limits assumed): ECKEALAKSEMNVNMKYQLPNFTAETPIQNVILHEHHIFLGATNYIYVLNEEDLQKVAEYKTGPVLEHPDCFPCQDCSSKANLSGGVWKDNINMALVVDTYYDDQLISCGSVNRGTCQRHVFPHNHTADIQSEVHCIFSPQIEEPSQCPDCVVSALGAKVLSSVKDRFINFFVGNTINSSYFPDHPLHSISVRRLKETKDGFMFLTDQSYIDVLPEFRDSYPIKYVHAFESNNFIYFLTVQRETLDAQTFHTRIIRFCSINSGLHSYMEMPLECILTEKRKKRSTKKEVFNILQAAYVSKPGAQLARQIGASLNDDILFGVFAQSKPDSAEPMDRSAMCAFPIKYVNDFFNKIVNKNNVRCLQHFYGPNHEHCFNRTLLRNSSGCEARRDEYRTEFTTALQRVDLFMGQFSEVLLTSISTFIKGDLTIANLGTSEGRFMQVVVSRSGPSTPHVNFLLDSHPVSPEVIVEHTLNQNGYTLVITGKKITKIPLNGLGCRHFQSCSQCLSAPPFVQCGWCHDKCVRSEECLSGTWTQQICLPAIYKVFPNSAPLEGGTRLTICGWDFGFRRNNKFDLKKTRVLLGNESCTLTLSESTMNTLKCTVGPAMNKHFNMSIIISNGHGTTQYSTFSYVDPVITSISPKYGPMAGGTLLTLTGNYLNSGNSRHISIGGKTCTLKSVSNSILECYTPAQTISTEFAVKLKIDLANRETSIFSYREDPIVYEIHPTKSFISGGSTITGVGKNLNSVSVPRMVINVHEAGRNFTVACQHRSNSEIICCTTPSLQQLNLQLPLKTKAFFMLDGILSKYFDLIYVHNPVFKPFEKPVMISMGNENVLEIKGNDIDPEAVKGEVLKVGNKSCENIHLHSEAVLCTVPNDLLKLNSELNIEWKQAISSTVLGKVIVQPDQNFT
B1 displayed a Kd of 2480 nM.

The next assay addresses T1, cMet (antigen in the SPR measurements). Put plainly: SPR; after protease (MMP2/9) cleavage; dsFv unleashed.
B2: the affinity, expressed as Kd, was 7.08 nM.

A further assay shares this target. Description: SPR, KD uncleaved against KD after protease cleavage.
For the molecule B3, the “reduced binding affinity as compared to after the protease cleavage” value stood at 17 times.
Same read-out and setting: to B1 belongs 350 times; to B4, 16 times.
Same read-out and setting: to B5 belongs 6 times.

The next assay addresses T2, Her3 on Her3-expressing, cMet negative T47D cells / Her3-positive cancer cells (UniProt P21860 20-1342, limits assumed).
T2 construct: whole, on cells
Description: FACS on live T47D cells (cMet-/Her3+); x axis fluorescence (log), y axis % of Max; antibody concentration not shown.
Take B6: the binding result was “binds”.

For a further assay, the target named is T1, cMet (antigen in the SPR measurements). Put plainly: SPR, cleaved against restricted form.
Take B2: the “fold improvement of affinity by MMP processing” value (“fold improvement of affinity” for short) was over 5 fold.
Take B7: the “fold improvement of affinity” value was over 5 fold.
Consider B8, for which the “fold improvement of affinity” value is over 5 fold.

The target in the next assay is HER3 (antigen in the SPR measurements) (UniProt P21860 20-643, limits assumed). Description: SPR.
Chain of HER3 (antigen in the SPR measurements) (P21860 20-643 limits assumed): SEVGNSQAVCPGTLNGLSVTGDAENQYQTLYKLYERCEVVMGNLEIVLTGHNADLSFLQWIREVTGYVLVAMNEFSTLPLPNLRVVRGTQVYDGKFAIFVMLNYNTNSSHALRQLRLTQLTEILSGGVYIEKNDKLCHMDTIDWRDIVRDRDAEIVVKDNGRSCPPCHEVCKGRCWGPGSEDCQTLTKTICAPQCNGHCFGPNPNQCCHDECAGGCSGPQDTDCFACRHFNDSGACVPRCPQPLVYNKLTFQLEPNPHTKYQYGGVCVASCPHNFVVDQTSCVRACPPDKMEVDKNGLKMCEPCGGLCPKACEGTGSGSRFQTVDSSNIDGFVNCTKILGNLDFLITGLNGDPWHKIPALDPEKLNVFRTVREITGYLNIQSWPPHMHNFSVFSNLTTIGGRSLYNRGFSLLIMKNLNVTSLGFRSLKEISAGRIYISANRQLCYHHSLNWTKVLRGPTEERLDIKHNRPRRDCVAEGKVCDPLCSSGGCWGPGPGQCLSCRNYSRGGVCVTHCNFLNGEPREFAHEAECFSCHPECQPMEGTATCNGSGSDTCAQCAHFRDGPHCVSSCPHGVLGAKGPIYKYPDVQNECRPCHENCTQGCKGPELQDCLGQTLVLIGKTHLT
The molecule B4 had a Kd of 1.92 nM, a koff of 0.000324 s⁻¹ and a kon of 169000 M⁻¹ s⁻¹.
Molecule B8 showed a Kd of 1.85 nM, a koff of 0.000327 s⁻¹ and a kon of 177000 M⁻¹ s⁻¹.
B5 gave a Kd of 2.34 nM, a koff of 0.000372 s⁻¹ and an association rate constant (kon) of 159000 M⁻¹ s⁻¹.

For the next assay, the target named is T1, cMet (antigen in the SPR measurements). Description: SPR.
The molecule B2 yielded a koff of 0.00015 s⁻¹ and a kon of 21200 M⁻¹ s⁻¹.
B3 returned an equilibrium dissociation constant (Kd) of 88.6 nM, an off-rate (koff) of 0.000263 s⁻¹ and a kon of 2970 M⁻¹ s⁻¹.
In the case of B1, the koff worked out at 0.000374 s⁻¹ and the kon was found to be 151 M⁻¹ s⁻¹.
The molecule B7 had a Kd of 5.2 nM, a koff of 0.000105 s⁻¹ and a kon of 20100 M⁻¹ s⁻¹.
For B4 the same measures were 114 nM, 0.000417 s⁻¹ and 3650 M⁻¹ s⁻¹.
For the molecule B8, the affinity, expressed as Kd, was 7.14 nM; the koff is 0.000141 s⁻¹; the on-rate constant (kon) turned out to be 19700 M⁻¹ s⁻¹.
In turn, B5 registered a Kd of 20 nM, a koff of 0.000193 s⁻¹ and a kon of 9670 M⁻¹ s⁻¹.
